Measurements published in patent US20210355185A1 (Xencor, published 2021).

B1: XENP28536 (antibody, human IgG1, kappa, V domains shown)
VH: EVQLVESGGGLVQPGGSLRLSCAASGFTFSSFGMHWVRQAPGKGLEWVSYISSGSSIIYYADSVKGRFTISRDNAKNSLYLQMNSLRAEDTAVYYCARGGRLVWSPDYWGQGTLVTVSS
VL: DIVMTQSPDSLAVSLGERATINCKSSQSLLNSGNQKNYLTWYQQKPGQPPKLLIYWASTRESGVPDRFTGSGSGTDFTLTISSLQAEDVAVYYCQNDYSYPFTFGSGTKLEIKR
notes: Format is bivalent human IgG1 with E233P/L234V/L235A/G236del/S267K; also called mAb C; mAb C[PD-1]_H1L1
B2: mAb C[PD-1]_H1_L1.1 (antibody, IgG1, V domains shown)
VH: EVQLVESGGGLVQPGGSLRLSCAASGFTFSSFGMHWVRQAPGKGLEWVSYISSGSSIIYYADSVKGRFTISRDNAKNSLYLQMNSLRAEDTAVYYCARGGRLVWSPDYWGQGTLVTVSS
VL: DIVMTQSPDSLAVSLGERATINCKSSQSLLHSGNQKNYLTWYQQKPGQPPKLLIYWASTRESGVPDRFTGSGSGTDFTLTISSLQAEDVAVYYCQNDYSYPFTFGSGTKLEIK
B3: mab_C[PD-1]_H1_L1.3 (antibody, IgG1, V domains shown)
VH: EVQLVESGGGLVQPGGSLRLSCAASGFTFSSFGMHWVRQAPGKGLEWVSYISSGSSIIYYADSVKGRFTISRDNAKNSLYLQMNSLRAEDTAVYYCARGGRLVWSPDYWGQGTLVTVSS
VL: DIVMTQSPDSLAVSLGERATINCKSSQSLLSSGNQKNYLTWYQQKPGQPPKLLIYWASTRESGVPDRFTGSGSGTDFTLTISSLQAEDVAVYYCQNDYSYPFTFGSGTKLEIK

Assays:
[1] = target: T1, human PD-1-His (human, UniProt Q15116 25-167, limits assumed); assay: Octet BLI; antibody captured on anti-human Fc (AHC) biosensors, dipped into PD-1-His
T1 construct: not shown: His tag

[2] = target: T2, PD-1-His (UniProt Q15116 25-167, limits assumed); assay: Octet affinity screen; bivalent IgG1 format
T2 construct: Captured on HIS1K biosensors; not shown: His tag
Description: We engineered affinity optimized variants of mAb C. A library of variants was constructed by standard mutagenesis to introduce point mutations into the variable heavy or variable light regions of XENP28536. Illustrative sequences are depicted in FIG. 70A-FIG. 70I (variable domain sequences).

T2 sequence (Q15116 25-167 limits assumed): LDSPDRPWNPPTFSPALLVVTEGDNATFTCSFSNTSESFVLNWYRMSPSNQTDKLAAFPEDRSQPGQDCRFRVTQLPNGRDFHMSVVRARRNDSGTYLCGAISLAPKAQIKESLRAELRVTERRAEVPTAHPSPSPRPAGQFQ
T1 sequence (Q15116 25-167 limits assumed): as above

Binder	binding result [1]	fold improved affinity over WT (mAb C[PD-1]_H1L1) [2]
B1	binds	–
B2	–	> 2 fold
B3	–	> 2 fold
